Experimental data published in publication PMC3794954, “An Improved SELEX-Seq Strategy for Characterizing DNA-Binding Specificity of Transcription Factor: NF-κB as an Example”.

Tests used:
NF-kB p50 [1] = target: T1, NF-kB p50 (UniProt P19838 1-433); assay: EMSA; no polydI-dC; 1x DBB (from 5x): 10 mM Tris-HCl pH 7.5, 50 mM NaCl, 0.5 mM EDTA, 3 mM MgCl2, 1% glycerol, 0.5 mg/ml BSA, 0.05% NP-40, 0.01 mM DTT; room temperature 60 min; 6%; conditions: protein: commercial; chain copies: 2; label: 5' FAM on reverse strand (primer P-R); blunt
T1 sequence (P19838 1-433): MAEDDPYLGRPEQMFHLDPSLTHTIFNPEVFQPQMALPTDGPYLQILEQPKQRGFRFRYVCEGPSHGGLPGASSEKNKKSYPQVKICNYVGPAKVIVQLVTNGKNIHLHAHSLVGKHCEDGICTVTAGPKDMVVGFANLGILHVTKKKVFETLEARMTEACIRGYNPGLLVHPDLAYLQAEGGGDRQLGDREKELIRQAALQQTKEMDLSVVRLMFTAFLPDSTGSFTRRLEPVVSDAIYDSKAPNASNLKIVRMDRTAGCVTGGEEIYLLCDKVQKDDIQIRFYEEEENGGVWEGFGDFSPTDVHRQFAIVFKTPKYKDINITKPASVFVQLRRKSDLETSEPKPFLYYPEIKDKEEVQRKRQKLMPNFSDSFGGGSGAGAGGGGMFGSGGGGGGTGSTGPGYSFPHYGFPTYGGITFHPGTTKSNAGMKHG

NF-kB p50 [2] = target: T1, NF-kB p50; assay: EMSA; higher affinity than the 3' T probe; 1x DBB (from 5x): 10 mM Tris-HCl pH 7.5, 50 mM NaCl, 0.5 mM EDTA, 3 mM MgCl2, 1% glycerol, 0.5 mg/ml BSA, 0.05% NP-40, 0.01 mM DTT; room temperature 60 min; 6%; conditions: protein: commercial; chain copies: 2; label: biotin at ends; blunt

B1: positive dsDNA (dsDNA)
DNA 1: ACTGTCTGAGGAGTGTCGTGTGCTAAAGGGACTTTCCAAAACGACTCAGCACCACTTCACTCAC
DNA 2: GTGAGTGAAGTGGTGCTGAGTCGTTTTGGAAAGTCCCTTTAGCACACGACACTCCTCAGACAGT
binding result (NF-kB p50 [1]): binds

B2: probe b (GGGACTTTCCC) (dsDNA)
DNA 1: AGTTGAGGGGACTTTCCCAGGC
DNA 2: GCCTGGGAAAGTCCCCTCAACT
binding result (NF-kB p50 [2]): binds
